The numbers were not newly measured in PMC5801593, which cites them from elsewhere.

By Kd is commonly meant the free concentration of one partner at which half of the binding sites on the other are occupied at equilibrium, for simple one-to-one binding.

The data set concerns the target IscS (Escherichia coli) (UniProt P0A6B7). Briefly: fluorescence labeling and calorimetry.

IscS (Escherichia coli), sequence (P0A6B7 whole entry): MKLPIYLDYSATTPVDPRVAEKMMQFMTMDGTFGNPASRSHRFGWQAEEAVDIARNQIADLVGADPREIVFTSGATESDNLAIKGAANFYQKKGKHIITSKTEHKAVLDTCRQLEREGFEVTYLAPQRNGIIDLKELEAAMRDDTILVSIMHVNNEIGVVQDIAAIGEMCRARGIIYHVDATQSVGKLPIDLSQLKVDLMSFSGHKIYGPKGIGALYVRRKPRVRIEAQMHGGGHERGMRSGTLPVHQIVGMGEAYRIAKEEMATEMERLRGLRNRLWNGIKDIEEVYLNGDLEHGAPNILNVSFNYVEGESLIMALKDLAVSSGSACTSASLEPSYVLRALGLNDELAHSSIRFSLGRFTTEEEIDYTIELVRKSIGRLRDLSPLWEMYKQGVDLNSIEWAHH
CyaY, sequence (P27838 whole entry): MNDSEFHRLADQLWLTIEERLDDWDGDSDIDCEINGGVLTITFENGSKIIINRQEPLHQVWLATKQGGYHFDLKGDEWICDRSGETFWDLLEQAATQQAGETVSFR

As to CyaY (from UniProt P27838), the Kd was 20 µM.

In the case of IscX (from UniProt P0C0L9), the Kd was 12 µM.
